Eleven molecules from article PMC7110135, “Molecular flexibility of DNA as a key determinant of RAD51 recruitment” can be followed below.

One data set deals with F86E RAD51 (human) (UniProt Q06609). The experiment in a line: SPR; Biotinylated ssDNA dT-50, dN-50, dA-50 and dsDNA dN-50p held on streptavidin-coated CM5 chips; F86E RAD51 injected at 30 uM; 37 C; same SPR running buffer with ATP and CaCl2. The protomer-protomer KD in solution is a single fit parameter of a simplified ODE polymerisation model, fitted to all four curves by ABC-SMC (n = 3).

Data set [1] concerns the target T1, RAD51 WT (Homo sapiens, UniProt Q06609 1-339). The experiment in a line: SPR; 3 uM RAD51, ATP, Ca2+; slightly faster association, slow dissociation; SPR (Biacore T200, streptavidin CM5): 150 mM KCl, 20 mM Hepes pH 7.5, 2 mM DTT, 5 mg/ml BSA, 2.5 mM ATP, 10 mM CaCl2, 10% glycerol, 37 C. The settings on record: protein: recombinant; tags: untagged; chain copies: 10; label: 3' Biotin-TEG.

Data set [2] has as its target T1, RAD51 WT. The experiment in a line: SPR; ATP, Ca2+; SPR (Biacore T200, streptavidin CM5): 150 mM KCl, 20 mM Hepes pH 7.5, 2 mM DTT, 5 mg/ml BSA, 2.5 mM ATP, 10 mM CaCl2, 10% glycerol, 37 C. The settings on record: protein: recombinant, tags: untagged.
Data set [3] addresses T1, RAD51 WT. The experiment in a line: SPR; 150 nM RAD51, 2.5 mM ATP, 10 mM Ca2+; slower association than dN-50, similar lifetime; SPR (Biacore T200, streptavidin CM5): 150 mM KCl, 20 mM Hepes pH 7.5, 2 mM DTT, 5 mg/ml BSA, 2.5 mM ATP, 10 mM CaCl2, 10% glycerol, 37 C. The following applies: protein: recombinant; tags: untagged; chain copies: 16; label: 5' Biotin (C6) on strand 1; blunt.

The target in data set [4] is T1, RAD51 WT. The experiment in a line: SPR; 3 uM RAD51, ATP, Ca2+; faster association, slower dissociation than dN-8p; SPR (Biacore T200, streptavidin CM5): 150 mM KCl, 20 mM Hepes pH 7.5, 2 mM DTT, 5 mg/ml BSA, 2.5 mM ATP, 10 mM CaCl2, 10% glycerol, 37 C. The following applies: protein: recombinant; tags: untagged; chain copies: 16; label: 3' Biotin-TEG on strand 2; hairpin, two strands joined by (HEG)2, blunt.

Data set [5] has as its target T2, human wild-type (WT) RAD51 (human), Q06609.
T2 chain: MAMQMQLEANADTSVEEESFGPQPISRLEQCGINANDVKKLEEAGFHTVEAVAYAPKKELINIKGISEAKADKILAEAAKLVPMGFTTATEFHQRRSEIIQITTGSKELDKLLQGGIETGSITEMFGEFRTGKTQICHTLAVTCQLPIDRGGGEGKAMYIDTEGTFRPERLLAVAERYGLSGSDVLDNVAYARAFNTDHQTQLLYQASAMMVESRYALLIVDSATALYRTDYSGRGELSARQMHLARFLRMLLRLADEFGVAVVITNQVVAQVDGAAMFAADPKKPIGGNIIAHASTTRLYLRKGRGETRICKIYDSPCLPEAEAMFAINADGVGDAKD
The experiment in a line: SPR; Biotinylated ssDNA (dN-X) and dsDNA (dN-Xp) held on streptavidin-coated CM5 chips; WT RAD51 injected at 150 nM or 3 uM; 37 C; 150 mM KCl, 20 mM Hepes pH 7.5, 2 mM DTT, 5 mg/ml BSA, 2.5 mM ATP, 10 mM CaCl2, 10% glycerol. The protomer-protomer KD in solution is a single fit parameter of an ODE polymerisation model, fitted to all curves by ABC-SMC (n = 3). The settings on record: remark: other sources report otherwise.

Data set [6] concerns the target T1, RAD51 WT. The experiment in a line: SPR; 150 nM RAD51, 2.5 mM ATP, 10 mM Ca2+; faster association than dN-50p; SPR (Biacore T200, streptavidin CM5): 150 mM KCl, 20 mM Hepes pH 7.5, 2 mM DTT, 5 mg/ml BSA, 2.5 mM ATP, 10 mM CaCl2, 10% glycerol, 37 C. The settings on record: protein: recombinant; tags: untagged; chain copies: 10; label: 5' Biotin (C6).
In data set [7] the target is T1, RAD51 WT. The experiment in a line: SPR; ATP, Ca2+; faster association than dN-50; SPR (Biacore T200, streptavidin CM5): 150 mM KCl, 20 mM Hepes pH 7.5, 2 mM DTT, 5 mg/ml BSA, 2.5 mM ATP, 10 mM CaCl2, 10% glycerol, 37 C. The following applies: protein: recombinant; tags: untagged; chain copies: 10; label: 5' Biotin (C6).
Where [8] appears, read: chain copies: 10, label: 3' Biotin-TEG.

With “F86E RAD51 (from UniProt Q06609 1-339) (natural protein)”, the Kd with F86E RAD51 (human) was determined as 10.2 µM.

In the case of CGTCGATGAGCAGTGTC (ssDNA) [ssDNA dN-17], the binding result with RAD51 WT [1] was “binds”.

B1: dsDNA dN-5p (dsDNA)
DNA 1: CGGAC
DNA 2: GTCCG
modifications: two hexaethylene glycol linkers join 3' end of strand 1 to 5' end of strand 2
As to B1, the binding result with RAD51 WT [2] (chain copies: 16, label: 3' Biotin-TEG on strand 2, hairpin, two strands joined by (HEG)2, blunt) is given as “no binding”.

For CGGAC (ssDNA) [ssDNA dN-5], the binding result in the data set with RAD51 WT [2] (setting [8]) is reported as “no binding”.

B2: dsDNA dN-50p (dsDNA)
DNA 1: TCGAGAGGGTAAACCACAATTATCGCCTACCCAAAACTATTTTATATCAA
DNA 2: TTGATATAAAATAGTTTTGGGTAGGCGATAATTGTGGTTTACCCTCTCGA
As to B2, the binding result in the data set with RAD51 WT [3] is on record as “binds”.

B3: dsDNA dN-11p (dsDNA)
DNA 1: CGTCGATAGGC
DNA 2: GCCTATCGACG
modifications: two hexaethylene glycol linkers join 3' end of strand 1 to 5' end of strand 2
On to B3, for which, in the data set with RAD51 WT [4], the binding result is “binds”.

CGTCGATAGGC (ssDNA) [ssDNA dN-11]: in the data set with RAD51 WT [2] (setting [8]), the binding result is given as “no binding”.

B4: human wild-type (WT) RAD51, Q06609 1-339 (natural protein)
chain: MAMQMQLEANADTSVEEESFGPQPISRLEQCGINANDVKKLEEAGFHTVEAVAYAPKKELINIKGISEAKADKILAEAAKLVPMGFTTATEFHQRRSEIIQITTGSKELDKLLQGGIETGSITEMFGEFRTGKTQICHTLAVTCQLPIDRGGGEGKAMYIDTEGTFRPERLLAVAERYGLSGSDVLDNVAYARAFNTDHQTQLLYQASAMMVESRYALLIVDSATALYRTDYSGRGELSARQMHLARFLRMLLRLADEFGVAVVITNQVVAQVDGAAMFAADPKKPIGGNIIAHASTTRLYLRKGRGETRICKIYDSPCLPEAEAMFAINADGVGDAKD
B4 registered a Kd in data set [5] of 0.00114 µM.

Consider CTGACTGC (ssDNA) [ssDNA dN-8], for which the binding result in the data set with RAD51 WT [2] (setting [8]) is “no binding”.

Regarding TTGAGAGAGCAGACCACAATTATCACCTACACGACATCATTTTATATCAA (ssDNA) [ssDNA dN-50], the binding result with RAD51 WT [6] is given as “binds”.

Consider TTTTTTTTTTTTTTTTTTTTTTTTTTTTTTTTTTTTTTTTTTTTTTTTTT (ssDNA) [ssDNA dT-50], for which the binding result with RAD51 WT [7] is recorded as “binds”.
